In US20170313762A1 one finds EC50 of agonist-promoted receptor internalization (decrease of BRET between receptor-RlucII and lyn-rGFP) data, which are given here for 1 substance.

The assay concerns the target vasopressin V2 receptor-RlucII (hV2R wt-RlucII) (human). Description: cell-based or functional assay.

In the case of “Oxytocin (from UniProt P01178 20-28) (peptide)”, the EC50 of agonist-promoted receptor internalization (decrease of BRET between receptor-RlucII and lyn-rGFP) turned out to be 2200 nM.
